According to publication PMC12207370, “Macrocyclic Peptide Probes for Immunomodulatory Protein CD59: Potent Modulators of Bacterial Toxin Activity and Antibody‐Dependent Cytotoxicity” (Angewandte Chemie (International Ed. in English), 2025):

Target: T1, biotinylated CD59 (Homo sapiens, UniProt P13987)
T1 construct: Recombinant soluble human CD59 with an additional C-terminal cysteine residue
T1 sequence (P13987 26-102 limits assumed): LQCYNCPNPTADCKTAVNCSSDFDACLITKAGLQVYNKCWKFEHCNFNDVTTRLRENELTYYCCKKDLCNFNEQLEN
Experiment: mRNA-display cyclic peptide screen against CD59-biotin, NGS abundance after 6th selection round
Conditions: for Counts (raw counts for peptide sequence), Seq I: NGS sample Seq I; for Counts (raw counts for peptide sequence), Seq I / Counts (raw counts for peptide sequence), Seq II / Counts Seq I / Counts Seq II: sheet R6 (6th selection round); for Counts (raw counts for peptide sequence), Seq II: NGS sample Seq II; for Percentage of the pool, averaged across the two sequencing samples: average of Seq I and Seq II; for Percentage of the pool, averaged across the two sequencing samples / Percentage of the pool, Seq I / Percentage of the pool, Seq II / Percentage Seq I / Percentage Seq II / Percentage Average: sheet R6; for Percentage of the pool, Seq I: counts normalised by total counts of NGS sample Seq I; for Percentage of the pool, Seq II: counts normalised by total counts of NGS sample Seq II; for Percentage Seq I: counts normalised by total counts of sample Seq I; for Percentage Seq I / Percentage Seq II: percentage of the pool; for Percentage Seq II: counts normalised by total counts of sample Seq II; for Percentage Average: percentage of the pool averaged across the two sequencing samples; for Counts Seq I / Counts Seq II: raw NGS counts of peptide sequence; for Counts Seq I: sequencing sample Seq I; for Counts Seq II: sequencing sample Seq II
Summary of the method: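 Peptide–mRNA fusions were made by in vitro translation with a customised PURE express kit. The kit lacked release factor 1 and methionine and was supplemented with […] initiator tRNA carrying N-chloroacetyl-d-tyrosine. Thioether macrocycles were formed, then enriched and amplified over iterative rounds on CD59-biotin immobilised on streptavidin beads. NGS read counts per sequence were recorded after the 6th selection round.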

Row | Sequence | Counts (raw counts for peptide sequence), Seq I | Counts (raw counts for peptide sequence), Seq II | Percentage of the pool, averaged across the two sequencing samples | Percentage of the pool, Seq I | Percentage of the pool, Seq II | Percentage Seq I | Percentage Seq II | Percentage Average | Counts Seq I | Counts Seq II
1 | CFAGRLTIDAA | 78 | 1 | 0.010% | 0.018% | 0.00232% | – | – | – | – | –
2 | FVTGDRDHTRG | – | – | – | – | – | 0.127% | 0.121% | 0.124% | 554 | 52
3 | FVRGDLYSVRG | – | – | – | – | – | 0.018% | 0.032% | 0.025% | 78 | 14
4 | CFSRRLTEGAI | 41 | 5 | 0.010% | 0.009% | 0.012% | – | – | – | – | –
5 | GYKNECHSFNW | 40 | 6 | 0.012% | 0.009% | 0.014% | – | – | – | – | –
6 | CAWGNRHTAYY | – | – | – | – | – | 0.018% | 0.030% | 0.024% | 80 | 13
7 | CFAGRLTIGAV | – | – | – | – | – | 0.056% | 0.056% | 0.056% | 245 | 24
8 | GRLNECHVIWS | – | – | – | – | – | 0.015% | 0.037% | 0.026% | 65 | 16
9 | LCSVRGSNDWI | – | – | – | – | – | 0.073% | 0.074% | 0.074% | 320 | 32
10 | SAWGNRQVQYY | – | – | – | – | – | 0.110% | 0.116% | 0.113% | 483 | 50
11 | CFTHRLTDFGT | – | – | – | – | – | 0.053% | 0.070% | 0.061% | 230 | 30
12 | LQPPDRSCLPKI | – | – | – | – | – | 0.029% | 0.030% | 0.029% | 125 | 13
13 | LAWGNRQIQYY | 78 | 6 | 0.016% | 0.018% | 0.014% | – | – | – | – | –
14 | IARGDWNHQFY | – | – | – | – | – | 0.514% | 0.450% | 0.482% | 2249 | 194
15 | YLSGSSNFTRG | – | – | – | – | – | 0.042% | 0.044% | 0.043% | 184 | 19
16 | HVRGDAWTVLG | – | – | – | – | – | 0.243% | 0.216% | 0.230% | 1065 | 93
17 | CFTYRLSDEPSA | – | – | – | – | – | 0.039% | 0.016% | 0.027% | 169 | 7
18 | SAWGNWQIQYY | – | – | – | – | – | 0.023% | 0.030% | 0.027% | 102 | 13

Row | Sequence | Counts (raw counts for peptide sequence), Seq I | Counts (raw counts for peptide sequence), Seq II | Percentage of the pool, averaged across the two sequencing samples | Percentage of the pool, Seq I | Percentage of the pool, Seq II | Percentage Seq I | Percentage Seq II | Percentage Average | Counts Seq I | Counts Seq II
19 | LYSHPRSLCSFS | – | – | – | – | – | 0.082% | 0.091% | 0.086% | 357 | 39
20 | CEALLRRGWD | – | – | – | – | – | 0.094% | 0.079% | 0.087% | 413 | 34
21 | IARGDWNHQFF | 56 | 3 | 0.010% | 0.013% | 0.007% | – | – | – | – | –
22 | HCWVRGGRNYT | – | – | – | – | – | 0.024% | 0.014% | 0.019% | 104 | 6
23 | CRGNRFYQLSFH | – | – | – | – | – | 0.154% | 0.186% | 0.170% | 674 | 80
24 | YVYGSRDRCWG | – | – | – | – | – | 0.445% | 0.441% | 0.443% | 1946 | 190
25 | ITRGSNIYAYG | 79 | 6 | 0.016% | 0.018% | 0.014% | – | – | – | – | –
26 | CFSRRTSVPNTT | – | – | – | – | – | 0.209% | 0.190% | 0.200% | 914 | 82
27 | CFARRVNNSSL | – | – | – | – | – | 0.031% | 0.028% | 0.030% | 137 | 12
28 | FVTGNRDHARG | – | – | – | – | – | 0.029% | 0.035% | 0.032% | 126 | 15
29 | PWTWGNRSSVRG | 49 | 10 | 0.017% | 0.011% | 0.023% | – | – | – | – | –
30 | FVAGNRDHTRG | – | – | – | – | – | 0.023% | 0.016% | 0.020% | 102 | 7
31 | VWGNRWTRIYW | – | – | – | – | – | 0.037% | 0.035% | 0.036% | 161 | 15
32 | FVRGDMYSVLG | 39 | 6 | 0.011% | 0.009% | 0.014% | – | – | – | – | –
33 | CFSWRLGPAEK | – | – | – | – | – | 0.020% | 0.028% | 0.024% | 87 | 12
34 | IIRGNRLTKYE | – | – | – | – | – | 0.020% | 0.026% | 0.023% | 86 | 11
35 | AVHGSSFYVWG | – | – | – | – | – | 0.037% | 0.039% | 0.038% | 164 | 17
36 | LLGTRDYVRLWH | – | – | – | – | – | 0.144% | 0.139% | 0.142% | 630 | 60
